The test deals with senataxin (SETX), endogenous (human (endogenous in MRC-5)) (UniProt Q7Z333). Kind of test: proximity ligation; Duolink PLA in methanol-fixed MRC-5 cells with antibodies against the two endogenous proteins; cells mock treated (DMSO), 25 uM CPT for 10 min, or 50 uM alpha-amanitin overnight followed by CPT.

The values below come from PMC8443744.

Sequence of UniProt Q7Z333 (Q7Z333 whole entry): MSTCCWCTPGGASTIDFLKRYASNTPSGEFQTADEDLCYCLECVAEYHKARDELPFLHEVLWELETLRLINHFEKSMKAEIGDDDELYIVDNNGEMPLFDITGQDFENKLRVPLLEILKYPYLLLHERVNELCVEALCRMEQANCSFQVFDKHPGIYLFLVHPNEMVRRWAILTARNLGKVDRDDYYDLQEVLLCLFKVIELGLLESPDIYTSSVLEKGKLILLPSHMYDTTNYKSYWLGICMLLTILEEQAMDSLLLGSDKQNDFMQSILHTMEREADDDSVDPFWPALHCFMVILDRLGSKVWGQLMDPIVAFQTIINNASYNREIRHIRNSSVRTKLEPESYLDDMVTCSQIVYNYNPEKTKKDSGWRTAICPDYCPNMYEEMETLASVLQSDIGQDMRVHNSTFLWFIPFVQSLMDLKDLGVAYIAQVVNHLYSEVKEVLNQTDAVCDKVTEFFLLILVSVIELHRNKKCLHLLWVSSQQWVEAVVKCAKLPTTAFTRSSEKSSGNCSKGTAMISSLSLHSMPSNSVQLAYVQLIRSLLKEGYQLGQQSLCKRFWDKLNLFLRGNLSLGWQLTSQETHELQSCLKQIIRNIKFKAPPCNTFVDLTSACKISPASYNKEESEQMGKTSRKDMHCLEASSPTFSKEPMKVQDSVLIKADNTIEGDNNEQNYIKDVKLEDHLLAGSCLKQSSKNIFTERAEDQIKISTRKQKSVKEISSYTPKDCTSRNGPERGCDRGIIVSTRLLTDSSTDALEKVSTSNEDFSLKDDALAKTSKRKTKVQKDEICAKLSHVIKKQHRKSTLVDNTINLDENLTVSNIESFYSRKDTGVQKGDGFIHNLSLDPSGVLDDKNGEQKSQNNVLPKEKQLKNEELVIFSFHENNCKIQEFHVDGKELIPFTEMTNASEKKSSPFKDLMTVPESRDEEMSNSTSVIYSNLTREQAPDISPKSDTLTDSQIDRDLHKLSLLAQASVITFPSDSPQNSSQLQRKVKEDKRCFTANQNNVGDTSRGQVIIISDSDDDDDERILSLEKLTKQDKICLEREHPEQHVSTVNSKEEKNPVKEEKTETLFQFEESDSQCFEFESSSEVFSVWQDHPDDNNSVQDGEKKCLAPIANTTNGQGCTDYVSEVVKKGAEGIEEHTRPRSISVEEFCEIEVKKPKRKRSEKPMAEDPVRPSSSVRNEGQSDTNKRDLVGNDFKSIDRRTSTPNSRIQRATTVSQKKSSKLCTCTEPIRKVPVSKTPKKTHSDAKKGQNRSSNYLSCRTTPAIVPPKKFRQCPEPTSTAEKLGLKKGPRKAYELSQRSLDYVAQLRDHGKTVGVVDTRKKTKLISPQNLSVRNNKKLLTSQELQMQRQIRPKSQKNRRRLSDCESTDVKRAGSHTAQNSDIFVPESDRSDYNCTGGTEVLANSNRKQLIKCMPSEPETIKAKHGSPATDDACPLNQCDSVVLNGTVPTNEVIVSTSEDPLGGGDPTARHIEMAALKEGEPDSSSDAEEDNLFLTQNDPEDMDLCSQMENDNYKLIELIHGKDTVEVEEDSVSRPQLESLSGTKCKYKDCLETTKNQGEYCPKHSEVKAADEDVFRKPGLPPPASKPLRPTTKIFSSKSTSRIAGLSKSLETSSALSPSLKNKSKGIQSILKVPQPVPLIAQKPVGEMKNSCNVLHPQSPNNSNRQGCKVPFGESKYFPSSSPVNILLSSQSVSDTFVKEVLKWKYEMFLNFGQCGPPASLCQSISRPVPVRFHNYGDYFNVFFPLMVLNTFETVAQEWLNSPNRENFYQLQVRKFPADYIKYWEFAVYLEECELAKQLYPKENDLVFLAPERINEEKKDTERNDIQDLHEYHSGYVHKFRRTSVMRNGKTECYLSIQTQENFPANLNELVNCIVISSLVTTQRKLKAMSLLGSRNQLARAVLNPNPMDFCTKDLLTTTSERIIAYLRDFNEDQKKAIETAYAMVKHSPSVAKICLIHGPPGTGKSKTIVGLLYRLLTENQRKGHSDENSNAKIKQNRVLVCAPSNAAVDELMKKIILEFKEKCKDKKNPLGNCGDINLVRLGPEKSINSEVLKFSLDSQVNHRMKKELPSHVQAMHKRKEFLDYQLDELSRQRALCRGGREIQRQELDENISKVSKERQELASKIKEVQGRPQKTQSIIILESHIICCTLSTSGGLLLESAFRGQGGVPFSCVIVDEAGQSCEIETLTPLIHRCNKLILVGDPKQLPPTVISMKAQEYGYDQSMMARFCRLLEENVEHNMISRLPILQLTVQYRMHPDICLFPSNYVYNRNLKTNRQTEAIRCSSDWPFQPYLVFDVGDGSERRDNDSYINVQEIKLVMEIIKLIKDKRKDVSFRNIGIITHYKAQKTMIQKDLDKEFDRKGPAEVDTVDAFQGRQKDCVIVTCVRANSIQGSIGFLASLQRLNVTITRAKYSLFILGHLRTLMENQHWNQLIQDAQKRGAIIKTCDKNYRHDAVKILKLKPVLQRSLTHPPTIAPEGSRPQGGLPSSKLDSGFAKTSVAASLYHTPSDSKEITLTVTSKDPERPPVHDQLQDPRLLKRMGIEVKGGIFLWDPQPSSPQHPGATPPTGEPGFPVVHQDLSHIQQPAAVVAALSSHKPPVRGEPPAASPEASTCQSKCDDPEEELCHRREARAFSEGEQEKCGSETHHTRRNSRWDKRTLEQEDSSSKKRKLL

On to “ubiquitin specific peptidase 11 (USP11), endogenous (from UniProt P51784 1-963)”, for which the fold increase in PLA signal after CPT (against unperturbed cells) is 5 fold.
